In article PMC11877715, “NONO regulates m^5C modification and alternative splicing of PTEN mRNAs to drive gastric cancer progression” (Journal of Experimental & Clinical Cancer Research : CR, 2025):

Target: T1, purified HA-NSUN2 (human, UniProt Q08J23 1-767)
T1 construct: NSUN2, human, in p-GEX-4T-1; The plasmid is called GST-HA-NSUN2, the protein in the assay HA-NSUN2; also called GST-HA-NSUN2; HA-NSUN2 fusion protein; source: E. coli, purified (prepared 'as described previously')
Test: pull-down; Called GST pull-down; about 100 µg GST-Flag-NONO and HA-NSUN2 incubated overnight with anti-Flag antibody at 4 °C, protein A/G magnetic beads 1 h at room temperature, low-pH elution, Western blot
Conditions: both partners purified

T1 sequence (Q08J23 whole entry, the tested form may be a part): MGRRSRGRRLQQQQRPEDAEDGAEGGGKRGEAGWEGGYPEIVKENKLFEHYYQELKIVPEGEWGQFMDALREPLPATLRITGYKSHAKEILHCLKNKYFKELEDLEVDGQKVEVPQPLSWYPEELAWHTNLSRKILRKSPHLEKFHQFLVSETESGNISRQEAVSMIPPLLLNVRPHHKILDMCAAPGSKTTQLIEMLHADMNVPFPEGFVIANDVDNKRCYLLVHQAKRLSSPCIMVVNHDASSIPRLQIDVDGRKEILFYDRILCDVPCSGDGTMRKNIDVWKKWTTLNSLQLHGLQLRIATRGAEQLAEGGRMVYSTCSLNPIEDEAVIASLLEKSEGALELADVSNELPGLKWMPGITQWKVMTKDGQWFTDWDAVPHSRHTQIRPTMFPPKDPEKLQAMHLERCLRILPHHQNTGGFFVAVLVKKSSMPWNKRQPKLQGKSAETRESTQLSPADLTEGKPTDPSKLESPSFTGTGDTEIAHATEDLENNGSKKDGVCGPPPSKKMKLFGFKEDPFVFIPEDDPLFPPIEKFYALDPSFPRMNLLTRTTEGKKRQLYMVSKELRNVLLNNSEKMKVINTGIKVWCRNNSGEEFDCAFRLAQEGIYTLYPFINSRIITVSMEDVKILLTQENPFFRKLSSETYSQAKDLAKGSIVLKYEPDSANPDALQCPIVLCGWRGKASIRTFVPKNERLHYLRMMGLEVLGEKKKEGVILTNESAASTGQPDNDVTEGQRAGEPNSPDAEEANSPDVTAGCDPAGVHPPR

B1: GST-Flag-NONO (natural protein, human, UniProt Q15233 1-471, looked up)
chain: MQSNKTFNLEKQNHTPRKHHQHHHQQQHHQQQQQQPPPPPIPANGQQASSQNEGLTIDLKNFRKPGEKTFTQRSRLFVGNLPPDITEEEMRKLFEKYGKAGEVFIHKDKGFGFIRLETRTLAEIAKVELDNMPLRGKQLRVRFACHSASLTVRNLPQYVSNELLEEAFSVFGQVERAVVIVDDRGRPSGKGIVEFSGKPAARKALDRCSEGSFLLTTFPRPVTVEPMDQLDDEEGLPEKLVIKNQQFHKEREQPPRFAQPGSFEYEYAMRWKALIEMEKQQQDQVDRNIKEAREKLEMEMEAARHEHQVMLMRQDLMRRQEELRRMEELHNQEVQKRKQLELRQEEERRRREEEMRRQQEEMMRRQQEGFKGTFPDAREQEIRMGQMAMGGAMGINNRGAMPPAPVPAGTPAPPGPATMMPDGTLGLTPPTTERFGQAATMEGIGAIGGTPPAFNRAAPGAEFAPNKRRRY
notes: NONO, human, FL, in p-GEX-4T-1; also called GST-tagged Flag-NONO; FLAG-NONO-FL in p-GEX-4T-1; source: E. coli, purified (prepared 'as described previously')
B1: binds.
